Measured values taken from patent US20220010021A1 (Sanofi, published 2022).

T1: human beta-Klotho (KLB) (human, UniProt Q86Z14 53-997)
T1 construct: Bought protein; also called human KLB; β-Klotho
T1 sequence (looked up): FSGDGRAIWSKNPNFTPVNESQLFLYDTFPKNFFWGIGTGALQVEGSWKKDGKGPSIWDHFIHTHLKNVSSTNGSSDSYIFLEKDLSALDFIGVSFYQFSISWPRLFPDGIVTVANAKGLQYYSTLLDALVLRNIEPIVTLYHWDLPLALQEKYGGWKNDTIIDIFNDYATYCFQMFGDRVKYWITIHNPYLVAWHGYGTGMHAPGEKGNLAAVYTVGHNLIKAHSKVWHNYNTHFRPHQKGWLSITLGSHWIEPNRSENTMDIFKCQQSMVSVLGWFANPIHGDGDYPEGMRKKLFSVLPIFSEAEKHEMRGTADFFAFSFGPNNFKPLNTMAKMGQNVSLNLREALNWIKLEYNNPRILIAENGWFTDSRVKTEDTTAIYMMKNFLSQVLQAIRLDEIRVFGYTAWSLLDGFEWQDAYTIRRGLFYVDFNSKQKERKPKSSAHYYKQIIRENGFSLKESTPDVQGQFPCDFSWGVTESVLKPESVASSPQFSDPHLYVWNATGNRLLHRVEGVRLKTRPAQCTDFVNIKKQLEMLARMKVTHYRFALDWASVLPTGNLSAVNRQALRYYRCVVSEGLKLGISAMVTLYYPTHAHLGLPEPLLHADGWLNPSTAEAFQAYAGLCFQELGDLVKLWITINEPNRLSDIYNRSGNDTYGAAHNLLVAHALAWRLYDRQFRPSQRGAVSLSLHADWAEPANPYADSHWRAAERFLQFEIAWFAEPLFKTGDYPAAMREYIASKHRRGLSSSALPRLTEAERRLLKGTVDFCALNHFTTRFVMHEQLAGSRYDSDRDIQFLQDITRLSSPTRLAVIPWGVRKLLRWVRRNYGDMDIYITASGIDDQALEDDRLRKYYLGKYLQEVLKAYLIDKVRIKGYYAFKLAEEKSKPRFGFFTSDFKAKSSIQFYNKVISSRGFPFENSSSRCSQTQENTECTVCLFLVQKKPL


Legend:
[1] = target: cell surface receptor composed of FGFR1c and co-receptor beta-Klotho (KLB) (human, UniProt P11362 22-822; Q86Z14 1-1044); assay: cell-based or functional assay; as to Mean E max, Luciferase reporter gene assay: reference of the scale not given here
human beta-Klotho (KLB) = target: T1, human beta-Klotho (KLB); assay: BLI off-rate screening (Octet), crude supernatant;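 also: supernatants tested at 25 µg/mL, dissociation from biosensors recorded in D-PBS with 0.1% BSA over 1800 s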

Sequence of cell surface receptor composed of FGFR1c and co-receptor beta-Klotho (KLB) (P11362 22-822, chain 1 of 2): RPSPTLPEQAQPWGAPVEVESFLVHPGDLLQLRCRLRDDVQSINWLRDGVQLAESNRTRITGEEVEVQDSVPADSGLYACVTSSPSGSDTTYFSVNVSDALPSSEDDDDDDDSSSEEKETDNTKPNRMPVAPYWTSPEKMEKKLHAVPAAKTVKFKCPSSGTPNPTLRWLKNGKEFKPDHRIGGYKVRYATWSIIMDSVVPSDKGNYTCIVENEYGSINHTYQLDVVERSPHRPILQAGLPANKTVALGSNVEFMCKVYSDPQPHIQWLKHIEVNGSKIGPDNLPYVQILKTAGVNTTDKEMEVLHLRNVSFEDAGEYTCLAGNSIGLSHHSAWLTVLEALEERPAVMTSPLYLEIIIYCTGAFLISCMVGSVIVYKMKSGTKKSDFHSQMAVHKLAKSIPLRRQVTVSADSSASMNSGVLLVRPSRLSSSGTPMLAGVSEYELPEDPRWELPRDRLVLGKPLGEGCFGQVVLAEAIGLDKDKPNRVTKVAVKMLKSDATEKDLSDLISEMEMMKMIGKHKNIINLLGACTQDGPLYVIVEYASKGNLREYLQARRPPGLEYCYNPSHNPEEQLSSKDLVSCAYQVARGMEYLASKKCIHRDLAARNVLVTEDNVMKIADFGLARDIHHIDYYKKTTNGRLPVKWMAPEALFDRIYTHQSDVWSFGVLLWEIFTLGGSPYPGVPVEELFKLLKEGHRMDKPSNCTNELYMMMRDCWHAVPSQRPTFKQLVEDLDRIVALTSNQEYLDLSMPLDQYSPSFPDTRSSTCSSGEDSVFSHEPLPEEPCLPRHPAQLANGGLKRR
Sequence of cell surface receptor composed of FGFR1c and co-receptor beta-Klotho (KLB) (Q86Z14 whole entry, chain 2 of 2): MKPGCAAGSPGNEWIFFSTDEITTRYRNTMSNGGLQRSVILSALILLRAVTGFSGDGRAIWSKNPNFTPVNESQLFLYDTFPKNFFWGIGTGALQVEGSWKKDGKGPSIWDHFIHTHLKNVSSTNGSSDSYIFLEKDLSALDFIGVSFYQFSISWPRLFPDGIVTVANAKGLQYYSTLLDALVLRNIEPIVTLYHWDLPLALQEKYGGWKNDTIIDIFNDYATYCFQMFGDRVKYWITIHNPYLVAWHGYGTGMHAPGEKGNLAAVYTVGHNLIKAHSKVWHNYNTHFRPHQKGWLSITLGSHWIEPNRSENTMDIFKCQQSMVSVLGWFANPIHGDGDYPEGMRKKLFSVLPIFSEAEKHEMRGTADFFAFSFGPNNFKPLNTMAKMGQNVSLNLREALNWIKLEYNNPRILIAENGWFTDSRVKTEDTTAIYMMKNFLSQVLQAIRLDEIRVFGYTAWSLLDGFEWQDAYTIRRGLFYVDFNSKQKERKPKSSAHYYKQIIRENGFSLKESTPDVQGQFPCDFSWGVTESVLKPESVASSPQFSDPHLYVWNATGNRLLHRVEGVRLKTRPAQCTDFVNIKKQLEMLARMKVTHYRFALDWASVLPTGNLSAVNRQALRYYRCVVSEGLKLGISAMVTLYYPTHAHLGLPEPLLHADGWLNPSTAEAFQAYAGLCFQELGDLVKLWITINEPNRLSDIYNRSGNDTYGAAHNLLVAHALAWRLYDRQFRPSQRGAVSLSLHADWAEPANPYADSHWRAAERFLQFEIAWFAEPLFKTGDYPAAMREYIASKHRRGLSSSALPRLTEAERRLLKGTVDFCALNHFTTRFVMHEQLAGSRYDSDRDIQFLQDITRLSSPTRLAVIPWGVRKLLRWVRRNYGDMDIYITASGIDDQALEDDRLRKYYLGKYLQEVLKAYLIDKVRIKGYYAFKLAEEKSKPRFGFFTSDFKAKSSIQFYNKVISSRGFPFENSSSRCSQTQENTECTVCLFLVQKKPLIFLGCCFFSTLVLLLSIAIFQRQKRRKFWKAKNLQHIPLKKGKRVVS

Row | Binder | Mean E max, Luciferase reporter gene assay [1] | Mean EC50, Luciferase reporter gene assay [1] | koff (human beta-Klotho (KLB))
1 | 16H7 light chain variant D50I (antibody, IgG4, V domains shown, IgG4 backbone) VH: not shown VL: SYVLTQPPSVSVAPGQTARITCGGNNIGSESVHWYQQKPGQAPVLVVYDISDRPSGIPERFSGSNSGNTATLTISRVEAGDEADYYCQVWDGNSDHVVFGGGTKLTVLG | 109% | 0.114 nM | 8.2e-05 s⁻¹
2 | 16H7 light chain variant D50R (antibody, IgG4, V domains shown, IgG4 backbone) VH: not shown VL: SYVLTQPPSVSVAPGQTARITCGGNNIGSESVHWYQQKPGQAPVLVVYDRSDRPSGIPERFSGSNSGNTATLTISRVEAGDEADYYCQVWDGNSDHVVFGGGTKLTVLG | 110% | 0.122 nM | 0.00013 s⁻¹
3 | 16H7 light chain variant D50S (antibody, IgG4, V domains shown, IgG4 backbone) VH: not shown VL: SYVLTQPPSVSVAPGQTARITCGGNNIGSESVHWYQQKPGQAPVLVVYDSSDRPSGIPERFSGSNSGNTATLTISRVEAGDEADYYCQVWDGNSDHVVFGGGTKLTVLG | 100% | 0.118 nM | 4.1e-06 s⁻¹
4 | 16H7 light chain variant D50T (antibody, IgG4, V domains shown, IgG4 backbone) VH: not shown VL: SYVLTQPPSVSVAPGQTARITCGGNNIGSESVHWYQQKPGQAPVLVVYDTSDRPSGIPERFSGSNSGNTATLTISRVEAGDEADYYCQVWDGNSDHVVFGGGTKLTVLG | 104% | 0.12 nM | 3.9e-05 s⁻¹
5 | 16H7 light chain variant D95A (antibody, IgG4, V domains shown, IgG4 backbone) VH: not shown VL: SYVLTQPPSVSVAPGQTARITCGGNNIGSESVHWYQQKPGQAPVLVVYDDSDRPSGIPERFSGSNSGNTATLTISRVEAGDEADYYCQVWDGNSAHVVFGGGTKLTVLG | 12% |  | 0.0002 s⁻¹
6 | 16H7 light chain variant D50M (antibody, IgG4, V domains shown, IgG4 backbone) VH: not shown VL: SYVLTQPPSVSVAPGQTARITCGGNNIGSESVHWYQQKPGQAPVLVVYDMSDRPSGIPERFSGSNSGNTATLTISRVEAGDEADYYCQVWDGNSDHVVFGGGTKLTVLG | 110% | 0.125 nM | 0.00013 s⁻¹
7 | 16H7 light chain variant D95H (antibody, IgG4, V domains shown, IgG4 backbone) VH: not shown VL: SYVLTQPPSVSVAPGQTARITCGGNNIGSESVHWYQQKPGQAPVLVVYDDSDRPSGIPERFSGSNSGNTATLTISRVEAGDEADYYCQVWDGNSHHVVFGGGTKLTVLG | 33% | 29.7 nM | 8.1e-06 s⁻¹
8 | 16H7 light chain variant D50V (antibody, IgG4, V domains shown, IgG4 backbone) VH: not shown VL: SYVLTQPPSVSVAPGQTARITCGGNNIGSESVHWYQQKPGQAPVLVVYDVSDRPSGIPERFSGSNSGNTATLTISRVEAGDEADYYCQVWDGNSDHVVFGGGTKLTVLG | 105% | 0.106 nM | 2.2e-05 s⁻¹
9 | 16H7 light chain variant D50Y (antibody, IgG4, V domains shown, IgG4 backbone) VH: not shown VL: SYVLTQPPSVSVAPGQTARITCGGNNIGSESVHWYQQKPGQAPVLVVYDYSDRPSGIPERFSGSNSGNTATLTISRVEAGDEADYYCQVWDGNSDHVVFGGGTKLTVLG | 113% | 0.157 nM | 0.00016 s⁻¹
10 | 16H7 light chain variant D50W (antibody, IgG4, V domains shown, IgG4 backbone) VH: not shown VL: SYVLTQPPSVSVAPGQTARITCGGNNIGSESVHWYQQKPGQAPVLVVYDWSDRPSGIPERFSGSNSGNTATLTISRVEAGDEADYYCQVWDGNSDHVVFGGGTKLTVLG | 108% | 0.145 nM | 0.00017 s⁻¹
11 | 16H7 light chain variant D50Q (antibody, IgG4, V domains shown, IgG4 backbone) VH: not shown VL: SYVLTQPPSVSVAPGQTARITCGGNNIGSESVHWYQQKPGQAPVLVVYDQSDRPSGIPERFSGSNSGNTATLTISRVEAGDEADYYCQVWDGNSDHVVFGGGTKLTVLG | 107% | 0.171 nM | 7.9e-05 s⁻¹
12 | 16H7 light chain variant D50L (antibody, IgG4, V domains shown, IgG4 backbone) VH: not shown VL: SYVLTQPPSVSVAPGQTARITCGGNNIGSESVHWYQQKPGQAPVLVVYDLSDRPSGIPERFSGSNSGNTATLTISRVEAGDEADYYCQVWDGNSDHVVFGGGTKLTVLG | 106% | 0.095 nM | 0.00013 s⁻¹

Continued, values first:

Row | Mean E max, Luciferase reporter gene assay [1] | Mean EC50, Luciferase reporter gene assay [1] | koff (human beta-Klotho (KLB)) | Binder
13 | 102% | 0.12 nM | 9.6e-05 s⁻¹ | 16H7 light chain variant H33G (antibody, IgG4, V domains shown, IgG4 backbone) VH: not shown VL: SYVLTQPPSVSVAPGQTARITCGGNNIGSESVGWYQQKPGQAPVLVVYDDSDRPSGIPERFSGSNSGNTATLTISRVEAGDEADYYCQVWDGNSDHVVFGGGTKLTVLG
14 | 100% | 0.121 nM | 3.6e-05 s⁻¹ | 16H7 light chain variant H33E (antibody, IgG4, V domains shown, IgG4 backbone) VH: not shown VL: SYVLTQPPSVSVAPGQTARITCGGNNIGSESVEWYQQKPGQAPVLVVYDDSDRPSGIPERFSGSNSGNTATLTISRVEAGDEADYYCQVWDGNSDHVVFGGGTKLTVLG
15 | 8% |  | 1.4e-05 s⁻¹ | 16H7 light chain variant D95M (antibody, IgG4, V domains shown, IgG4 backbone) VH: not shown VL: SYVLTQPPSVSVAPGQTARITCGGNNIGSESVHWYQQKPGQAPVLVVYDDSDRPSGIPERFSGSNSGNTATLTISRVEAGDEADYYCQVWDGNSMHVVFGGGTKLTVLG
16 | 99% | 0.166 nM | 6.8e-05 s⁻¹ | 16H7 light chain variant H33D (antibody, IgG4, V domains shown, IgG4 backbone) VH: not shown VL: SYVLTQPPSVSVAPGQTARITCGGNNIGSESVDWYQQKPGQAPVLVVYDDSDRPSGIPERFSGSNSGNTATLTISRVEAGDEADYYCQVWDGNSDHVVFGGGTKLTVLG
17 | 4% |  | 0.00013 s⁻¹ | 16H7 light chain variant D95Y (antibody, IgG4, V domains shown, IgG4 backbone) VH: not shown VL: SYVLTQPPSVSVAPGQTARITCGGNNIGSESVHWYQQKPGQAPVLVVYDDSDRPSGIPERFSGSNSGNTATLTISRVEAGDEADYYCQVWDGNSYHVVFGGGTKLTVLG
18 | 96% | 0.121 nM | 0.00013 s⁻¹ | 16H7 light chain variant H33A (antibody, IgG4, V domains shown, IgG4 backbone) VH: not shown VL: SYVLTQPPSVSVAPGQTARITCGGNNIGSESVAWYQQKPGQAPVLVVYDDSDRPSGIPERFSGSNSGNTATLTISRVEAGDEADYYCQVWDGNSDHVVFGGGTKLTVLG
19 | 102% | 0.107 nM | 5.2e-05 s⁻¹ | 16H7 light chain variant H33M (antibody, IgG4, V domains shown, IgG4 backbone) VH: not shown VL: SYVLTQPPSVSVAPGQTARITCGGNNIGSESVMWYQQKPGQAPVLVVYDDSDRPSGIPERFSGSNSGNTATLTISRVEAGDEADYYCQVWDGNSDHVVFGGGTKLTVLG
20 | 113% | 0.122 nM | 0.0001 s⁻¹ | 16H7 light chain variant H33F (antibody, IgG4, V domains shown, IgG4 backbone) VH: not shown VL: SYVLTQPPSVSVAPGQTARITCGGNNIGSESVFWYQQKPGQAPVLVVYDDSDRPSGIPERFSGSNSGNTATLTISRVEAGDEADYYCQVWDGNSDHVVFGGGTKLTVLG
21 | 108% | 0.123 nM | 6.8e-05 s⁻¹ | 16H7 light chain variant H33C (antibody, IgG4, V domains shown, IgG4 backbone) VH: not shown VL: SYVLTQPPSVSVAPGQTARITCGGNNIGSESVCWYQQKPGQAPVLVVYDDSDRPSGIPERFSGSNSGNTATLTISRVEAGDEADYYCQVWDGNSDHVVFGGGTKLTVLG
22 | 104% | 0.121 nM | 9.7e-05 s⁻¹ | 16H7 light chain variant H33I (antibody, IgG4, V domains shown, IgG4 backbone) VH: not shown VL: SYVLTQPPSVSVAPGQTARITCGGNNIGSESVIWYQQKPGQAPVLVVYDDSDRPSGIPERFSGSNSGNTATLTISRVEAGDEADYYCQVWDGNSDHVVFGGGTKLTVLG
23 | 114% | 0.115 nM | 5.5e-05 s⁻¹ | 16H7 light chain variant H33L (antibody, IgG4, V domains shown, IgG4 backbone) VH: not shown VL: SYVLTQPPSVSVAPGQTARITCGGNNIGSESVLWYQQKPGQAPVLVVYDDSDRPSGIPERFSGSNSGNTATLTISRVEAGDEADYYCQVWDGNSDHVVFGGGTKLTVLG
24 | 4% |  | 0.00016 s⁻¹ | 16H7 light chain variant D95I (antibody, IgG4, V domains shown, IgG4 backbone) VH: not shown VL: SYVLTQPPSVSVAPGQTARITCGGNNIGSESVHWYQQKPGQAPVLVVYDDSDRPSGIPERFSGSNSGNTATLTISRVEAGDEADYYCQVWDGNSIHVVFGGGTKLTVLG
